Experiment: in vivo
Conditions: SCID, mouse, in vivo, iv, 4 uCi, total radioactivity; for tissue uptake at […] / tissue uptake at 1 h / tissue uptake at 48 h / tissue uptake at 0.5 h / tissue uptake at 4 h / tissue uptake at 24 h / tissue uptake at 72 h: Avg % ID/gm

For CSCC[C@H](NC(=O)[C@H](CC(C)C)NC(=O)[C@H](Cc1cnc[nH]1)NC(=O)CNC(=O)[C@@H](NC(=O)[C@H](C)NC(=O)[C@H](Cc1c[nH]c2ccccc12)NC(=O)[C@H](CCC(N)=O)NC(=O)CCCCCCCNC(=O)CN1CCN(CC(=O)O)CCN(CC(=O)O)CCN(CC(=O)O)CC1)C(C)C)C(N)=O [111In-DOTA-8-Aoc-BBN[7-14]NH2, metal not drawn], the tissue uptake dose at […] (Avg % ID, Blood, 15 min) was 7.92 ± 2.03 %ID, the tissue uptake dose at 0.5 h (Avg % ID, Blood, 30 min) was 2.47 ± 0.74 %ID and the tissue uptake dose at 1 h (Avg % ID, Blood, 1 hr) was 0.92 ± 0.58 %ID. The tissue uptake dose at 48 h (Avg % ID, Blood) was 0.12 ± 0.05 %ID, the tissue uptake dose at […] (Avg % ID, Carcass, 15 min) was 33.1 ± 5.51 %ID and the tissue uptake dose at 0.5 h (Avg % ID, Carcass, 30 min) was 12.3 ± 3.27 %ID. The dose excreted at 24 h (Avg % ID, Feces, 24 hrs) was 6.1 ± 2.6%, the dose excreted at 48 h (Avg % ID, Feces) was 5.89 ± 3.81% and the tissue uptake dose at […] (Avg % ID, Heart, 15 min) was 0.2 ± 0.07 %ID. It also gave a tissue uptake dose at 0.5 h (Avg % ID, Heart, 30 min) of 0.06 ± 0.02 %ID, a tissue uptake dose at 4 h (Avg % ID, Heart, 4 hrs) of 0.01 ± 0.01 %ID and a tissue uptake dose at 48 h (Avg % ID, Heart) of 0.01 ± 0.01 %ID. It also gave a tissue uptake dose at […] (Avg % ID, Kidney, 15 min) of 7.18 ± 3.16 %ID, a tissue uptake dose at 0.5 h (Avg % ID, Kidney, 30 min) of 2.45 ± 0.78 %ID and a tissue uptake dose at 1 h (Avg % ID, Kidney, 1 hr) of 1.81 ± 0.37 %ID. It also gave a tissue uptake dose at 4 h (Avg % ID, Kidney, 4 hrs) of 0.97 ± 0.08 %ID, a tissue uptake dose at 48 h (Avg % ID, Kidney) of 0.16 ± 0.04 %ID and a tissue uptake dose at […] (Avg % ID, L. Intestine, 15 min) of 5.84 ± 0.9 %ID. For the same molecule, the tissue uptake dose at 0.5 h (Avg % ID, L. Intestine, 30 min) was 4.53 ± 0.45 %ID, the tissue uptake dose at 1 h (Avg % ID, L. Intestine, 1 hr) was 2.18 ± 0.86 %ID and the tissue uptake dose at 24 h (Avg % ID, L. Intestine, 24 hrs) was 1.46 ± 0.42 %ID. The tissue uptake dose at 48 h (Avg % ID, L. Intestine) was 0.73 ± 0.21 %ID, the tissue uptake dose at 72 h (Avg % ID, L. Intestine, 72 hrs) was 0.41 ± 0.05 %ID and the tissue uptake dose at […] (Avg % ID, Liver, 15 min) was 1.85 ± 0.41 %ID. For the same molecule, the tissue uptake dose at 0.5 h (Avg % ID, Liver, 30 min) was 0.85 ± 0.21 %ID, the tissue uptake dose at 72 h (Avg % ID, Liver, 72 hrs) was 0.08 ± 0.01 %ID and the tissue uptake dose at […] (Avg % ID, Lung, 15 min) was 0.62 ± 0.25 %ID. For the same molecule, the tissue uptake dose at 0.5 h (Avg % ID, Lung, 30 min) was 0.2 ± 0.06 %ID, the tissue uptake dose at 24 h (Avg % ID, Lung, 24 hrs) was 0.02 ± 0.01 %ID and the tissue uptake dose at 48 h (Avg % ID, Lung) was 0.01 %ID. For the same molecule, the tissue uptake dose at […] (Avg % ID, Muscle, 15 min) was 0.16 ± 0.06 %ID, the tissue uptake dose at 0.5 h (Avg % ID, Muscle, 30 min) was 0.05 ± 0.02 %ID and the tissue uptake dose at 1 h (Avg % ID, Muscle, 1 hr) was 0.01 ± 0.01 %ID. For the same molecule, the tissue uptake dose at 24 h (Avg % ID, Muscle, 24 hrs) was 0.01 ± 0.01 %ID, the tissue uptake dose at […] (Avg % ID, Pancreas, 15 min) was 10.3 ± 1.44 %ID and the tissue uptake dose at 0.5 h (Avg % ID, Pancreas, 30 min) was 7.37 ± 1.2 %ID. It also gave a tissue uptake dose at 4 h (Avg % ID, Pancreas, 4 hrs) of 3.28 ± 0.8 %ID, a tissue uptake dose at 48 h (Avg % ID, Pancreas) of 0.17 ± 0.09 %ID and a tissue uptake dose at 72 h (Avg % ID, Pancreas, 72 hrs) of 0.06 ± 0.02 %ID. It also gave a tissue uptake dose at […] (Avg % ID, S. Intestine, 15 min) of 6.98 ± 0.35 %ID, a tissue uptake dose at 0.5 h (Avg % ID, S. Intestine, 30 min) of 6.24 ± 0.46 %ID and a tissue uptake dose at 1 h (Avg % ID, S. Intestine, 1 hr) of 7.45 ± 1.62 %ID. The tissue uptake dose at 4 h (Avg % ID, S. Intestine, 4 hrs) was 2.43 ± 0.56 %ID, the tissue uptake dose at 24 h (Avg % ID, S. Intestine, 24 hrs) was 0.98 ± 0.26 %ID and the tissue uptake dose at 48 h (Avg % ID, S. Intestine) was 0.32 ± 0.07 %ID. It also gave a tissue uptake dose at 72 h (Avg % ID, S. Intestine, 72 hrs) of 0.15 ± 0.02 %ID, a tissue uptake dose at […] (Avg % ID, Spleen, 15 min) of 0.1 ± 0.02 %ID and a tissue uptake dose at 0.5 h (Avg % ID, Spleen, 30 min) of 0.08 ± 0.03 %ID. It also gave a tissue uptake dose at 48 h (Avg % ID, Spleen) of 0.01 ± 0.01 %ID, a tissue uptake dose at 72 h (Avg % ID, Spleen, 72 hrs) of 0.01 ± 0.01 %ID and a tissue uptake dose at […] (Avg % ID, Stomach, 15 min) of 0.98 ± 0.18 %ID. The tissue uptake dose at 0.5 h (Avg % ID, Stomach, 30 min) was 0.65 ± 0.04 %ID, the tissue uptake dose at 1 h (Avg % ID, Stomach, 1 hr) was 0.52 ± 0.11 %ID and the tissue uptake dose at 4 h (Avg % ID, Stomach, 4 hrs) was 0.34 ± 0.23 %ID. For the same molecule, the tissue uptake dose at 72 h (Avg % ID, Stomach, 72 hrs) was 0.02 ± 0.01 %ID, the tissue uptake dose at […] (Avg % ID, Tumor, 15 min) was 1.92 ± 1.22 %ID and the tissue uptake dose at 0.5 h (Avg % ID, Tumor, 30 min) was 0.99 ± 0.62 %ID. For the same molecule, the tissue uptake dose at 24 h (Avg % ID, Tumor, 24 hrs) was 0.25 ± 0.13 %ID, the tissue uptake dose at 48 h (Avg % ID, Tumor) was 0.08 ± 0.05 %ID and the dose excreted at […] (Avg % ID, Urine, 15 min) was 27.9 ± 10.3%. It also gave a dose excreted at 0.5 h (Avg % ID, Urine, 30 min) of 62.6 ± 5.02%, a dose excreted at 1 h (Avg % ID, Urine, 1 hr) of 68.6 ± 6.96% and a dose excreted at 4 h (Avg % ID, Urine, 4 hrs) of 81.8 ± 3.82%. It also gave a dose excreted at 24 h (Avg % ID, Urine, 24 hrs) of 87.2 ± 4.31%, a dose excreted at 48 h (Avg % ID, Urine) of 91.8 ± 4.13% and a dose excreted at 72 h (Avg % ID, Urine, 72 hrs) of 92.5 ± 1.09%. It also gave a tissue uptake at […] (Blood, 15 min) of 5.58 ± 2.43 %ID/g, a tissue uptake at 1 h (Blood, 1 hr) of 0.6 ± 0.39 %ID/g and a tissue uptake at 48 h (Blood) of 0.07 ± 0.03 %ID/g. It also gave a tissue uptake at […] (Heart, 15 min) of 2.2 ± 1.05 %ID/g, a tissue uptake at 0.5 h (Heart, 30 min) of 0.62 ± 0.33 %ID/g and a tissue uptake at 4 h (Heart, 4 hrs) of 0.13 ± 0.06 %ID/g. For the same molecule, the tissue uptake at 24 h (Heart, 24 hrs) was 0.05 ± 0.09 %ID/g, the tissue uptake at […] (Kidney, 15 min) was 29 ± 14.4 %ID/g and the tissue uptake at 0.5 h (Kidney, 30 min) was 8.7 ± 2.8 %ID/g. It also gave a tissue uptake at 1 h (Kidney, 1 hr) of 5.66 ± 1.33 %ID/g, a tissue uptake at 4 h (Kidney, 4 hrs) of 3.18 ± 0.43 %ID/g and a tissue uptake at 48 h (Kidney) of 0.48 ± 0.09 %ID/g. The tissue uptake at […] (L. Intestine, 15 min) was 8.58 ± 3.04 %ID/g, the tissue uptake at 0.5 h (L. Intestine, 30 min) was 4.33 ± 0.44 %ID/g and the tissue uptake at 1 h (L. Intestine, 1 hr) was 4.29 ± 2.55 %ID/g. The tissue uptake at 4 h (L. Intestine, 4 hrs) was 10.3 ± 2.7 %ID/g, the tissue uptake at 24 h (L. Intestine, 24 hrs) was 2.35 ± 0.43 %ID/g and the tissue uptake at 48 h (L. Intestine) was 0.81 ± 0.2 %ID/g. For the same molecule, the tissue uptake at 72 h (L. Intestine, 72 hrs) was 0.45 ± 0.04 %ID/g, the tissue uptake at […] (Liver, 15 min) was 2.03 ± 0.85 %ID/g and the tissue uptake at 0.5 h (Liver, 30 min) was 0.7 ± 0.21 %ID/g. It also gave a tissue uptake at 72 h (Liver, 72 hrs) of 0.07 ± 0.02 %ID/g, a tissue uptake at 0.5 h (Lung, 30 min) of 0.94 ± 0.28 %ID/g and a tissue uptake at 48 h (Lung) of 0.06 ± 0.02 %ID/g. For the same molecule, the tissue uptake at 72 h (Lung, 72 hrs) was 0.02 ± 0.02 %ID/g, the tissue uptake at […] (Muscle, 15 min) was 1.3 ± 0.6 %ID/g and the tissue uptake at 0.5 h (Muscle, 30 min) was 0.32 ± 0.12 %ID/g. The tissue uptake at 1 h (Muscle, 1 hr) was 0.08 ± 0.07 %ID/g, the tissue uptake at […] (Pancreas, 15 min) was 54.3 ± 9.7 %ID/g and the tissue uptake at 0.5 h (Pancreas, 30 min) was 27.9 ± 3.44 %ID/g. The tissue uptake at 4 h (Pancreas, 4 hrs) was 16.6 ± 4.43 %ID/g, the tissue uptake at 48 h (Pancreas) was 0.77 ± 0.44 %ID/g and the tissue uptake at 72 h (Pancreas, 72 hrs) was 0.23 ± 0.08 %ID/g. The tissue uptake at 0.5 h (S. Intestine, 30 min) was 5.16 ± 1.06 %ID/g, the tissue uptake at 1 h (S. Intestine, 1 hr) was 6.8 ± 1.81 %ID/g and the tissue uptake at 4 h (S. Intestine, 4 hrs) was 2.24 ± 0.35 %ID/g. For the same molecule, the tissue uptake at 48 h (S. Intestine) was 0.25 ± 0.06 %ID/g, the tissue uptake at 72 h (S. Intestine, 72 hrs) was 0.12 ± 0.02 %ID/g and the tissue uptake at […] (Spleen, 15 min) was 2.21 ± 0.8 %ID/g. For the same molecule, the tissue uptake at 0.5 h (Spleen, 30 min) was 0.83 ± 0.26 %ID/g, the tissue uptake at […] (Stomach, 15 min) was 3.3 ± 1.99 %ID/g and the tissue uptake at 0.5 h (Stomach, 30 min) was 1.82 ± 0.44 %ID/g. The tissue uptake at 1 h (Stomach, 1 hr) was 1.99 ± 0.24 %ID/g, the tissue uptake at 72 h (Stomach, 72 hrs) was 0.05 ± 0.02 %ID/g and the tissue uptake at 0.5 h (Tumor, 30 min) was 4.58 ± 0.53 %ID/g. The tissue uptake at 4 h (Tumor, 4 hrs) was 1.78 ± 1.09 %ID/g, the tissue uptake at 48 h (Tumor) was 0.68 ± 0.24 %ID/g and the tissue uptake at 72 h (Tumor, 72 hrs) was 0.34 ± 0.1 %ID/g. The dose excreted at 24 h (excretion through the hepatobiliary pathway, 24 hours p.i.) was 8.5%.

Source: patent US20060067886A1, “Gastrin receptor-avid peptide conjugates” (priority 1997, published 2006)
